Changes are numbered by the printed parent chain.
T1: human FcγRIIb expressed on the cell surface (human, UniProt P31994 43-310)
T1 sequence (looked up): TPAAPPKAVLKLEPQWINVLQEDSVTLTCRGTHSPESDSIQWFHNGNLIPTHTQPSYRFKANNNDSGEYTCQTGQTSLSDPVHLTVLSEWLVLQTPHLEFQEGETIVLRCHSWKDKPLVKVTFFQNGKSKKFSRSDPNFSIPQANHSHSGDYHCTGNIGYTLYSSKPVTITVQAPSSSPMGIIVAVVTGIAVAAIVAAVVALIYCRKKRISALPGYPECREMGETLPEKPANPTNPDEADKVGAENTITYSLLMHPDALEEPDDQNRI

T2: recombinant soluble FcγRIIb (human, UniProt P31994 43-217)
T2 construct: extracellular domain; also called rsFcγRIIb
T2 sequence (looked up): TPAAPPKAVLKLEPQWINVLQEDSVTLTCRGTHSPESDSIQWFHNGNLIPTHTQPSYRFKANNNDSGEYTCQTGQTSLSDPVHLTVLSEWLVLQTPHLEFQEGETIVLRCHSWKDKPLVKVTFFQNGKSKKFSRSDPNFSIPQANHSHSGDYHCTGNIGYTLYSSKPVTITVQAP

T3: recombinant soluble FcγRIIa-Arg131 (human, UniProt P12318 34-217)
T3 construct: extracellular domain; Arg131 allelic form; also called rsFcγRIIa-R131
T3 sequence (looked up): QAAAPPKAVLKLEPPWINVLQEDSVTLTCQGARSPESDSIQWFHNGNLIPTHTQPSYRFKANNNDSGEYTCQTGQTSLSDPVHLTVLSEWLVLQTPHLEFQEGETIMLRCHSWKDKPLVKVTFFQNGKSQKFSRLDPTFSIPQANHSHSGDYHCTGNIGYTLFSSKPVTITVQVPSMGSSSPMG

T4: human FcγRIIa-H131 expressed on the cell surface (human, UniProt P12318 34-317)
T4 construct: whole, on cells
T4 sequence (looked up): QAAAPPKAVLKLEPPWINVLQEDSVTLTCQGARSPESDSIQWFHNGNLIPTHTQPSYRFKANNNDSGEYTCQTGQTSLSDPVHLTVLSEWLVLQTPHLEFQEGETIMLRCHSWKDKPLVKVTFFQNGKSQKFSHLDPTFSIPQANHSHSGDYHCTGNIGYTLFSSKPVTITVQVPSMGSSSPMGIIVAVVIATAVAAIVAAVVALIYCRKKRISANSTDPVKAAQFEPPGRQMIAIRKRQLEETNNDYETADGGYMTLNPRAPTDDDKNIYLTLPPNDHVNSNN

T5: human FcγRIIa-R131 expressed on the cell surface (human, UniProt P12318 34-317)
T5 construct: whole, on cells
T5 sequence (looked up): T4 sequence (looked up) with H134R

B1: chimeric anti-TNP human IgG2-FLGG (antibody)
heavy: EVQLQESGPSLVKPSQTLSLTCSVTGDSITSGYWNWIRQVPGNKLEYMGFINYSGNTYYNPSLRSRISITRDTSKNQYFLHLNSVTTEDTATYYCARANWDVFAYWGQGTLVTVSAASTKGPSVFPLAPCSRSTSESTAALGCLVKDYFPEPVTVSWNSGALTSGVHTFPAVLQSSGLYSLSSVVTVPSSNFGTQTYTCNVDHKPSNTKVDKTVERKCCVECPPCPAPEFLGGPSVFLFPPKPKDTLMISRTPEVTCVVVDVSHEDPEVQFNWYVDGVEVHNAKTKPREEQFNSTFRVVSVLTVVHQDWLNGKEYKCKVSNKGLPAPIEKTISKTKGQPREPQVYTLPPSREEMTKNQVSLTCLVKGFYPSDIAVEWESNGQPENNYKTTPPMLDSDGSFFLYSKLTVDKSRWQQGNVFSCSVMHEALHNHYTQKSLSLSLGK
light: not shown
notes: The entry includes a leader; the C-terminal LGK may differ
B2: Anti-TNP mAb formatted as IgG2-FLGG-SELF mutant (antibody)
heavy: B1 heavy with S263E, L324F
light: not shown
B3: Anti-TNP mAb formatted as IgG2-FEGG-SELF mutant (antibody)
heavy: B1 heavy with L231E, S263E, L324F
light: not shown
B4: chimeric anti-TNP human IgG2-LLGG (antibody)
heavy: B1 heavy with F230L
light: not shown
notes: The entry includes a leader
B5: chimeric anti-TNP human IgG2 (IgG2-WT) (antibody)
heavy: EVQLQESGPSLVKPSQTLSLTCSVTGDSITSGYWNWIRQVPGNKLEYMGFINYSGNTYYNPSLRSRISITRDTSKNQYFLHLNSVTTEDTATYYCARANWDVFAYWGQGTLVTVSAASTKGPSVFPLAPCSRSTSESTAALGCLVKDYFPEPVTVSWNSGALTSGVHTFPAVLQSSGLYSLSSVVTVPSSNFGTQTYTCNVDHKPSNTKVDKTVERKCCVECPPCPAPPVAGPSVFLFPPKPKDTLMISRTPEVTCVVVDVSHEDPEVQFNWYVDGVEVHNAKTKPREEQFNSTFRVVSVLTVVHQDWLNGKEYKCKVSNKGLPAPIEKTISKTKGQPREPQVYTLPPSREEMTKNQVSLTCLVKGFYPSDIAVEWESNGQPENNYKTTPPMLDSDGSFFLYSKLTVDKSRWQQGNVFSCSVMHEALHNHYTQKSLSLSLGK
light: not shown
notes: also called parental IgG2; wild type IgG2
B6: anti-TNP IgG2-SELF (antibody)
heavy: B5 heavy with S262E, L323F
light: not shown
B7: chimeric anti-TNP human IgG4-SELF (antibody)
heavy: EVQLQESGPSLVKPSQTLSLTCSVTGDSITSGYWNWIRQVPGNKLEYMGFINYSGNTYYNPSLRSRISITRDTSKNQYFLHLNSVTTEDTATYYCARANWDVFAYWGQGTLVTVSAASTKGPSVFPLAPCSRSTSESTAALGCLVKDYFPEPVTVSWNSGALTSGVHTFPAVLQSSGLYSLSSVVTVPSSSLGTKTYTCNVDHKPSNTKVDKRVESKYGPPCPSCPAPEFLGGPSVFLFPPKPKDTLMISRTPEVTCVVVDVEQEDPEVQFNWYVDGVEVHNAKTKPREEQFNSTYRVVSVLTVLHQDWLNGKEYKCKVSNKGFPSSIEKTISKAKGQPREPQVYTLPPSQEEMTKNQVSLTCLVKGFYPSDIAVEWESNGQPENNYKTTPPVLDSDGSFFLYSRLTVDKSRWQEGNVFSCSVMHEALHNHYTQKSLSLSLGK
light: not shown

Tests used:
[1] = molecular target: T1, human FcγRIIb expressed on the cell …; test: cell-based or functional assay
[2] = molecular target: T2, recombinant soluble FcγRIIb; test: BLI (Octet); anti-TNP IgG captured on TNP-BSA-biotin, rsFcγR in solution; global 1:1 Langmuir fit
Method: (§1) Affinity measurements of IgG:FcR interaction using Bio-Layer Interferometry (OCTET) TNP-BSA was reacted with the EZ-Link™ biotinylation reagent (ThermoFisher Scientific) according to the manufacturer's instructions. The resulting TNP-BSA-biotin (5 μg/ml, 30 sec) was captured to ˜0.8 nm on streptavidin BLI probes using an Octet Red96 (ForteBio; Molecular Devices LLC, San Jose, CA, United States of America) then loaded with anti-TNP IgG (4 μg/ml, 75 sec). A baseline was established (60 sec) followed by the association and dissociation (90s) of a concentration series (15 nM to 20 μM) of rsFcγRIIa-R131 or rsFcγRIIb. Regeneration after each initial reaction TNP-BSA-biotin capture and the subsequent binding cycles used 10 mM HCl.

[3] = molecular target: T6, human FcγRIIIa-F158 expressed on the cell surface (human, UniProt P08637 17-254); test: flow cytometry; immune complexes on IIA1.6 cells expressing the FcγR
T6 construct: whole, on cells; Co-expressed with the FcR common γ chain (FcRγ-EGFP)
T6 sequence (P08637 17-254): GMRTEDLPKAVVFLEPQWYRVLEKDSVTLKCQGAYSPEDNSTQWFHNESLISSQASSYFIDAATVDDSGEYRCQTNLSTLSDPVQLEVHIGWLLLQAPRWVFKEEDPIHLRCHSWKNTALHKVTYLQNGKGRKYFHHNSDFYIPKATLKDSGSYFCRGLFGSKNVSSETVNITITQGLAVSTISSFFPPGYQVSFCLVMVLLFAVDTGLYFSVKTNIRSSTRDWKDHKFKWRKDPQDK
Method: (§2) Antibody FcγR binding was measured using either immune complexes or monomeric IgG. Immune complexes were generated by incubating the anti-TNP antibodies (parental or mutant anti-TNP IgG) with TNP-BSA at a 2:1 ratio (40 μg/ml:20 μg/ml) for 30 minutes at 37° C. then 10 minutes at 4° C. […] The cells were washed twice, resuspended in […] PBS/0.5% BSA and 10,000 viable cells analysed in at least three experiments. Monomer IgG binding (MFI) were fitted to a single binding site model to determine binding affinity (KA). Similarly immune complex binding is reported as apparent affinity (K app).

[4] = molecular target: T7, human FcγRIIIa-V158 expressed on the cell surface (human, UniProt P08637 17-254); test: as above
T7 construct: whole, on cells; Co-expressed with the FcR common γ chain (FcRγ-EGFP)
T7 sequence (P08637 17-254 F176V): as the sequence (P08637 17-254) above, with F160V counted along it
Method: as §2

[5] = molecular target: T1, human FcγRIIb expressed on the cell …; test: flow cytometry; monomeric IgG on IIA1.6 cells expressing FcγRIIb, single site fit of MFI
Method: as §2
In an attempt to further improve FcγRIIb specificity, two residues in CH2 of the Fc domain were additionally modified (see Table 1). Particularly, two mutations S267E and L328F (SELF) which have been used in the IgG1 backbone (Chu S Y et al., Mol Immunol 45(15):3926-3933, 2008) were introduced into the IgG2- and IgG4-based mAbs, IgG2-FLGG, IgG2-FEGG and IgG4-FEGG, as well as the parental IgG4 antibody. The antibodies were then tested for specificity (see FIGS. 4-6) and inhibitory potency in allergen specific (FIG. 3) and anti-IgE BAT (FIG. 7). Several effects were apparent.

[6] = molecular target: T3, recombinant soluble FcγRIIa-Arg131; test: BLI (Octet); anti-TNP IgG captured on TNP-BSA-biotin, rsFcγR in solution; global 1:1 Langmuir fit
Method: as §1

[7] = molecular target: T8, human FcγRI expressed on the cell surface (human, UniProt P12314 16-374); test: flow cytometry; monomeric IgG on IIA1.6 cells expressing FcγRI
T8 construct: whole, on cells; Co-expressed with the FcR common γ chain
T8 sequence (P12314 16-374): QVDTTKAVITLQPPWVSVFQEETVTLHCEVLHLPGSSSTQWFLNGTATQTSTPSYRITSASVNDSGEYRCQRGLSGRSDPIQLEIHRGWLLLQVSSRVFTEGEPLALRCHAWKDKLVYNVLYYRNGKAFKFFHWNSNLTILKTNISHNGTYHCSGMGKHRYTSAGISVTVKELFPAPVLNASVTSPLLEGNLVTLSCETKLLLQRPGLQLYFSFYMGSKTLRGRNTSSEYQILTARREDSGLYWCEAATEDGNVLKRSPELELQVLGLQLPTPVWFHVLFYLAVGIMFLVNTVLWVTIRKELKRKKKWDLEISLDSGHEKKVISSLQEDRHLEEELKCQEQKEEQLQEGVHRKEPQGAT
Method: as §2

[8] = molecular target: T6, human FcγRIIIa-F158 expressed on the …; test: flow cytometry; immune complexes with TNP-BSA on IIA1.6 cells expressing the FcγR
Method: as §2
(§3) The interaction of the mutant IgGs with the human FcγRs on the cell surface was evaluated by flow cytometry and compared to the binding of parental IgG2 or IgG4 as well as to IgG1, the “universal” ligand for all human FcγR. Binding to the low affinity human FcγR (FcγRIIb, FcγRIIa, and FcγRIII) was performed using immune complexes (FIG. 1A-E). Binding to the high affinity FcγRI was determined using monomeric IgG (FIG. 1F). […] Uncomplexed, monomeric IgG1 and IgG4, but not IgG2, bound to the high affinity FcγRI.

[9] = molecular target: T7, human FcγRIIIa-V158 expressed on the …; test: as above
Method: as §2, §3

[10] = molecular target: T4, human FcγRIIa-H131 expressed on the …; test: as above
Method: as §2, §3

[11] = molecular target: T5, human FcγRIIa-R131 expressed on the …; test: as above
Method: as §2, §3

Row | Binder | IC50 of inhibition of basophil activation (whole blood BAT) [1] [µg/mL] | Ka [2] [M⁻¹] | Ka [6] [M⁻¹] | other results
1 | B1 | 1.6 | 830000 |  | % inhibition of Api m 1 induced basophil activation (washed blood BAT) [1]: 85%
2 | B2 | 0.24 | 1.03e+08 | 6.3e+08 | binding result [3]: no binding; binding result [4]: no binding; Ka [5]: 8.9e+07 M⁻¹
3 | B3 | 0.38 | 2.9e+07 | 1.88e+08 | Ka [5]: 3.2e+07 M⁻¹; binding result [7]: no binding
4 | B4 |  | 800000 |  | % inhibition of Api m 1 induced basophil activation (washed blood BAT) [1]: 81%
5 | B5 |  | 59000 |  | binding result [7]: no binding; binding result [8]: no binding; binding result [9]: no binding; binding result [10]: binds; binding result [11]: no binding
6 | B6 |  | 3.4e+07 | 9.1e+07 | 
7 | B7 | 1.1 |  |  | 
